{
  "source": "patent US9658208B2",
  "about": "“Methods and G proteins for screening and identifying ligands of G protein-coupled receptors” (Fred Hutchinson Cancer Research Center, priority 2011, dated 2017)",
  "molecules": {"B1": {"name": "Gαs-Gαt-13: Gαs-based chimeric G protein, final 13 C-terminal amino acids substituted with those of Gαt (protein)", "chain": "MGCLGNSKTEDQRNEEKAQREANKKIEKQLQKDKQVYRATHRLLLLGAGESGKSTIVKQMRILHVNGFNGEGGEEDVPDYASNSDGEKATKVQDIKNNLKEAIETIVAAMSNLVPPVELANPENQFRVDYILSVMNVPNFDFPPEFYEHAKALWEDEGVRACYERSNEYQLIDCAQYFLDKIDVIKQADYVPSDQDLLRCRVLTSGIFETKFQVDKVNFHMFDVGGQRDERRKWIQCFNDVTAIIFVVASSSYNMVIREDNQTNRLQEALNLFKSIWNNRWLRTISVILFLNKQDLLAEKVLAGKSKIEDYFPEFARYTTPEDATPEPGEDPRVTRAKYFIRDEFLRISTASGDGRHYCYPHFTCAVDTENIRRVFNDCRDIIIKENLKDCGLF", "modifications": "Chimeric protein", "notes": "Gαs-based chimeric G protein, final 13 C-terminal amino acids substituted with those of Gαt"}},
  "target": "T1, M2 muscarinic acetylcholine receptor (M2AchR) (Rattus norvegicus, UniProt P10980)",
  "T1 construct": "expressed in transfected cells; host or cells: HEK-293",
  "T1 sequence (P10980 1-466)": "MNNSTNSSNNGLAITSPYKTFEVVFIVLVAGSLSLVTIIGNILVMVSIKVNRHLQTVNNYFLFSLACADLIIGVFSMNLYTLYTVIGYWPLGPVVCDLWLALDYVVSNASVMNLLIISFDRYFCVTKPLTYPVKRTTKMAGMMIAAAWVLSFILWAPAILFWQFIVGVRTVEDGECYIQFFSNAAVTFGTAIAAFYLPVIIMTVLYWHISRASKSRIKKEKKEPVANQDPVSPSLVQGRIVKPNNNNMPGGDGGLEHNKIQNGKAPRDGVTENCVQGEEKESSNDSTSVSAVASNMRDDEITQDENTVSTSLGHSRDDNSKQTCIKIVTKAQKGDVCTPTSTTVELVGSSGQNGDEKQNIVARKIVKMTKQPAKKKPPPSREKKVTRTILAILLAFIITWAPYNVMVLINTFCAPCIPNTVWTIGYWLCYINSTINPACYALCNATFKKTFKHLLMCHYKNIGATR",
  "test": "CRE-SEAP reporter gene assay, coupling of Gαs-based chimeric G proteins with M2AchR (transient)",
  "format": "cell-based",
  "details": "HEK-293 cells; 10 uM acetylcholine",
  "method": "The constructs encoding chimeric G proteins were made by substituting C-terminal amino acids of Gαs (SEQ ID NO: 1) with the corresponding C-terminal amino acid sequences of other Gα subunits. A first set of Gαs-based chimeric G proteins was prepared by designing constructs encoding seven Gαs-Gαi chimeras in which the C-terminal 5, 11, 13, 28, 65, 84, or 131 amino acids of Gαs were substituted with the corresponding C-terminal amino acids from the […]. Briefly, HEK-293 cells were cotransfected with chimera constructs together with the CRE-SEAP reporter gene construct and a cDNA encoding the M2 muscarinic acetylcholine receptor (M2AchR), a GPCR that couples to Gαo but not to Gαs and inhibits cAMP production. The transfected cells were cultured in the presence or absence of acetylcholine and then assayed for SEAP activity.\nA series of chimeric constructs were prepared in which the final 13 C-terminal amino acids of the Gαs subunit were substituted with the final 13 C-terminal amino acids from Gαo, Gαz, Gαt, Gαq, or Gα15 subunits. Also tested were the Gαs-Gαi-13 and a chimera containing the last 5 C-terminal amino acids of Gαk (Gαs-Gαk-5 (SEQ ID NO: 2)). These chimeric constructs were tested for coupling with M2AchR. […] The Gαs-Gαo-13 (SEQ ID NO: […]) and Gαs-Gα15-13 (SEQ ID NO: 7) allowed approximately 2-fold increases in SEAP activity.\nChimeric G protein cloning: An insert containing rat Gαs cDNA was cut out using the restriction enzymes SaII and HinDIII, and ligated into pcDNA3.1(−) cut with XhoI and HinDIII. The chimeric G proteins with the desired C-terminal amino acid substitutions were prepared by PCR using Gαs as a template. More specifically, Gαs was PCR amplified between an internal EcoRI site and the stop codon, with a 3′ HinDIII placed immediately after the stop codon. A different 3′ oligonucleotide was used for each Gαs chimera and contained a 39 bp sequence that encoded the substituted amino acids at the C-terminus selected from the donor Gα subunit.\nM2AchR GPCR cloning: Rat M2AchR receptor was cloned by PCR from cDNA templates (ATCC) and ligated into pcDNA 3.1(−) for expression in mammalian cells.\nCRE-SEAP Reporter Gene Assay: 0.5×10^5 HEK-293 cells (ATCC) were seeded into each well of a 96 well plate 24 hours prior to transfection. cDNAs encoding M2AchR, SEAP reporters (Mercury Pathway Profiling System, BD Biosciences), and G protein chimeras were transfected into HEK-293 cells using lipofectamine reagent (Invitrogen) according to the manufacturer's protocols. […]\nFollowing transfection, the cells were maintained for 48 hours in 200 ul serum free media containing 10 uM acetylcholine (Sigma). […] Fluorescence was then measured using a CytoFluor 4000 multi well plate reader (Applied Biosystems).",
  "data": [
    {"molecule": "B1", "values": [
      {"measurement": "ligand induced increases in SEAP activity mediated by M2AchR (in words)", "value": "highest responses"}
    ]}
  ]
}
